Assay [1] addresses acidic patch mutant (APM) unmodified 147 bp nucleosome (H2A E61A, E64S, N68A, D72S, N89A, D90A, E91S) (human) (UniProt P62807). As to the kind of experiment: native gel or EMSA; direct binding: 100 nM nucleosome and varying KDM5A; 50 mM HEPES pH 7.5, 50 mM KCl, 1 mM BME, 0.01% Tween-20, 0.01% BSA, 5% sucrose; 1 h on ice; gel at 4 C; SYBR gold; fit to specific binding with Hill slope. On the technique in general: In EMSA bound probe runs differently from free probe, usually more slowly.

Assay [2] has as its target acidic patch mutant (APM) H3K4me3 147 bp nucleosome (human) (UniProt P62807). The description is as above.
For assay [3] the target is unchanged.
The target in assay [4] is acidic patch mutant (APM) unmodified 147 bp nucleosome (H2A E61A, E64S, N68A, D72S, N89A, D90A, E91S), P62807;Q71DI3;P62805. Kind of assay: EMSA.
In assay [5] the target is KDM5A^CAT (lysine demethylase 5A, residues 1-801) (UniProt P29375). As to the kind of experiment: EMSA.

The record followed here is article PMC12443421.

Where two headings read alike, the source gives them in different places.

Chain of KDM5A^CAT (lysine demethylase 5A, residues 1-801) (from UniProt P29375 1-801) (domain or fragment) (P29375 1-801): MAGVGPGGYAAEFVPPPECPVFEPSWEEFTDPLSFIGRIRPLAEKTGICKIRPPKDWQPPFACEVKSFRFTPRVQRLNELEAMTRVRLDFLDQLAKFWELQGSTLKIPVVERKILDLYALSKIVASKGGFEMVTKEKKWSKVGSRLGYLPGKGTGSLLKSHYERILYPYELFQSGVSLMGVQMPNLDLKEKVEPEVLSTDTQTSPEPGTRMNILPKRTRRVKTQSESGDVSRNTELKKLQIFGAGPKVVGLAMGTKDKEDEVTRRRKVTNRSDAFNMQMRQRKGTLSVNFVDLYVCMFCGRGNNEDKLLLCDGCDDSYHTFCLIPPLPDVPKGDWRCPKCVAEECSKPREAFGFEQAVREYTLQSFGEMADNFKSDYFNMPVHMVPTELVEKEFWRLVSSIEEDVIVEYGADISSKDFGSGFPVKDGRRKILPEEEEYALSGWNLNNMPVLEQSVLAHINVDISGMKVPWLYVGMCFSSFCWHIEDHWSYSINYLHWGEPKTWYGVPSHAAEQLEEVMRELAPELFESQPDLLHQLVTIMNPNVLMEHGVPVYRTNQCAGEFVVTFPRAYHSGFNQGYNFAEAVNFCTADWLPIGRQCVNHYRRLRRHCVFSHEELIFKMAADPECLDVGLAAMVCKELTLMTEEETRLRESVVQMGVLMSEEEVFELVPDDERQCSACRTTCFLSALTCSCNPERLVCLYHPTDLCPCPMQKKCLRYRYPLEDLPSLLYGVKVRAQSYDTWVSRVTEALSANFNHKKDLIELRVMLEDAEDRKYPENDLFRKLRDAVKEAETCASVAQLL

“KDM5A^CAT (lysine demethylase 5A, residues 1-801) (from UniProt P29375 1-801) (domain or fragment)” returned a fold loss in affinity relative to the wild-type 147 bp nucleosome in assay [1] of 3 fold. This substance returned a fold lower affinity relative to the wild-type H3K4me3 nucleosome in assay [2] of 4 fold. This substance also returned a fold decrease in demethylation of H3K4me3 on APM 147 bp nucleosomes relative to wild-type nucleosomes, quantitative western blot, single turnover (5 uM KDM5A enzyme, 50 nM substrate, 50 mM KCl) in assay [3] of 9 fold. In the case of “KDM5A^CAT (lysine demethylase 5A, residues 1-801) (from UniProt P29375) R210A; R217A; R219A; R220A; R232A; R264A; R265A; R266A; R271A; R280A; R282A”, the Kd in assay [4] and in assay [4] (0-32 µM KDM5A^MutR titration) was 14 µM each time. As to “KDM5A^CAT (lysine demethylase 5A, residues 1-801) (from UniProt P29375) R217A; R219A; R220A”, in assay [4], the Kd turned out to be 15 µM.

For the substance “KDM5A^CAT (lysine demethylase 5A, residues 1-801) (from UniProt P29375) R264A; R265A; R266A; R271A”, the dissociation constant (Kd) in assay [4] worked out at 10.1 µM. The same measure, in the same setting: to “KDM5A^CAT (lysine demethylase 5A, residues 1-801) (from UniProt P29375) R280A; R282A” belongs 12 µM. Turning to “wild-type unmodified 147 bp nucleosome (nucleosome core particle) (from UniProt P04908;P62807;Q71DI3;P62805) H2A:E61A; H2A:E64S; H2A:N68A; H2A:D72S; H2A:N89A; H2A:D90A; H2A:E91S”, the Kd in assay [5] worked out at 12 µM.

Broadly, the Kd is the equilibrium constant for the complex coming apart. A lower Kd goes with tighter binding.
